Experimental data published in US20160130575, “SCREENING OF NUCLEIC ACID AGENTS VIA PARTICLE DISPLAY” (THE REGENTS OF THE UNIVERSITY OF CALIFORNIA, published 2016).

Columns and labels:
[1] = molecular target: Plasminogen activator inhibitor-1 (PAI-1) (Homo sapiens, UniProt P05121 P05121:24-402); experiment: flow; FP-only particle negative control, 1 nM PAI-1; settings: tags: His6; biotinylated (NHS-PEO4); Millipore
[2] = molecular target: Apolipoprotein E3 (ApoE3) (Homo sapiens, UniProt P02649 P02649:19-317); experiment: flow; FP-only particle negative control, 3 nM ApoE; settings: tags: His6; biotinylated (NHS-PEO4); R&D Systems
Sequence of Apolipoprotein E3 (ApoE3) (P02649 19-317, one chain of several): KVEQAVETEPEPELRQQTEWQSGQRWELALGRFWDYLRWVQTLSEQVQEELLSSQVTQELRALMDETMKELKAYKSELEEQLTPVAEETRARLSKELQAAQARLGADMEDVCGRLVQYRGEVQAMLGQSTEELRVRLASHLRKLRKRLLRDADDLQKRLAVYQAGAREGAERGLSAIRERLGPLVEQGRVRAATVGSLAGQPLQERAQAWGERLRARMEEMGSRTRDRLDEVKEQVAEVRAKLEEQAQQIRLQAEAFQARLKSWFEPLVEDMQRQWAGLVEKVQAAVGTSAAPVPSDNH

[3] = molecular target: 4-1BB/TNFRSF9/CD137 Fc chimera (Homo sapiens, UniProt Q07011 Q07011:24-186); experiment: flow; FP-only particle negative control, 4 nM 4-1BB; settings: tags: Fc fusion; His6; biotinylated (NHS-PEO4); R&D Systems; chain copies: 2
Sequence of 4-1BB/TNFRSF9/CD137 Fc chimera (Q07011 24-186, change not shown, one chain of several): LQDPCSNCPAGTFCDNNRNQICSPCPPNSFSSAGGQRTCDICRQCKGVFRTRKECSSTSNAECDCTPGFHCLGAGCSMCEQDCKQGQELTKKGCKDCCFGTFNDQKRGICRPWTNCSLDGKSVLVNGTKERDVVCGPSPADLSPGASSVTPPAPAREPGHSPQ

alpha-thrombin = alpha-thrombin (Homo sapiens, UniProt P00734;P00734 P00734:328-363,P00734:364-622); experiment: flow; FP-only particle negative control, 20 pM thrombin

Measured: binding result

Sequence of Plasminogen activator inhibitor-1 (PAI-1) (P05121 24-402, one chain of several): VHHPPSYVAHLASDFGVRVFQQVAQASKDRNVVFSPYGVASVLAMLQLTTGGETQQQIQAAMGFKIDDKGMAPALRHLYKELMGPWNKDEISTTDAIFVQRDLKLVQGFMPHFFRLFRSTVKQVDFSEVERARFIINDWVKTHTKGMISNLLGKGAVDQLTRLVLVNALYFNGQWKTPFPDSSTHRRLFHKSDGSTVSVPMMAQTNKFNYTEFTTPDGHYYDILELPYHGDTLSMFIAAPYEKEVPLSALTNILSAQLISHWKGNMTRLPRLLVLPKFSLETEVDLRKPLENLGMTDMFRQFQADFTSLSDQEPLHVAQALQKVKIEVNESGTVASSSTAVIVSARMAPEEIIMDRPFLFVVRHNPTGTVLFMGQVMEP

B1: Forward primer (FP) control (ssDNA)
DNA: AGCAGCACAGAGGTCAGATG
modifications: 5'-amino-PEG18, coupled to magnetic particle
no binding: all assays above
